Assay results published in patent US20250161428A1, “PREVENTING/TREATING PSEUDOMONAS AERUGINOSA INFECTION” (priority 2022, published 2025).

Experiments:
[1] = system: purified LPS antigens of P. aeruginosa strains; assay: ELISA binding of mAbs to purified LPS
Description: (§1) ELISA: The binding of anti-P. aeruginosa A-band terminal epitope mAbs and polyclonal sera to BSA conjugates, purified LPS and to whole cells was evaluated by ELISA as described previously.

[2] = system: killed whole cells of P. aeruginosa strains; assay: ELISA binding of mAbs to killed whole cells; settings: for range of P. aeruginosa strains recognised: summary statement, serotype strains and clinical isolates
Description: FIGS. 11A, 11B, and 11C show ELISA analysis of binding of 1B1 (FIG. 11A), 3B8 (FIG. 11B), and 3C4 (FIG. 11C) purified monoclonal antibodies (mAbs) (all at 100 μg/ml) to killed whole cells of P. aeruginosa strains NRCC #'s 6678, 6668-70, 6954-60 and negative control strains M. catarrhalis 6541 and N. meningitidis 6263 (see Table 1 for full details of strains).
as §1

purified PAO1 LPS = assay: mAb competition ELISA; assay type: binding, P. aeruginosa; settings: PAO1 LPS coated plates; 3C4 at 62.5 μg/ml
Description: (§2) The plate was washed and mAb 3C4 was added at a constant concentration (62.5 μg/ml). A secondary mAb specific for mAb 3C4 was added and absorbance was measured after a colour reagent was added (line with square markers). The absorbance obtained when 3C4 was added to the plate without 1B1 competition is shown by the line with a triangle marker.
as §2, with “to” for “to the”, “3B8” for “1B1”
mAb competition ELISA: Wells of Nunc Maxisorp EIA plates were coated with 1 μg of P. aeruginosa LPS in PBS overnight at 4° C. and then brought to RT before use. Plates were blocked with 1% BSA-PBS for 1 h at RT, and then wells were washed with PBS-T. One mAb (1B1 or 3B8) was titrated and added to the plate for 1 h at RT. Following washing with PBS-T, the second mAb (3C4) was added at a pre-determined concentration and allowed to incubate for 1 h at RT. Following washing with PBS-T, AP-labeled goat anti-mouse IgG2b (Southern Biotech) specific for mAb 3C4, diluted 1:250 in 1% BSA-PBS was added for 1 h at RT. The plates were then washed with PBS-T and developed with Phosphatase Substrate System (Kirkegaard and Perry Laboratories). After 60 min absorbance was measured at 405 nm using a microtiter plate reader.

Molecule | recognition of purified LPS from A-band locus mutants PAO1 (wzy::Gm)(Δpa5457) and PAO1 (wzy::Gm)(Δpa5458) [1] | cross reactivity to a set of clinical isolates ([2]; killed whole cells, purified mAbs at 100 μg ml^−1) | cross reactivity to killed whole cells of A-band locus mutants and ATCC type strains of common clinical serotypes ([2]; purified mAbs at 100 μg/ml) | range of P. aeruginosa strains recognised [2] | epitope relation in competition ELISA with mAb 3C4 (purified PAO1 LPS)
1B1: mouse IgM monoclonal antibody to the A-PS terminus; VH SEQ ID NO: 4, VL SEQ ID NO: 8 (antibody, V domains shown) VH: DVKLVESGGGLVKVGGSLKISCAASGFPFSDYYMAWVGQTPEKRLELVAAINGDGGTTYYPDTVKGRFIISRDNAKNTLYLQMSSLRSEDTALYYCVRGRRITGTGAIDYWGQGTSVTVSS VL: QIFLTQSPVILSASPGEKVTMTCSATSNISYMYRYQQKPGSSPKPWIYGTSNLASRVPARFSGSGSGTSYSLTISNMEAEDAATYYCQIYHSYPYTFGGGTKLEIK | could recognise | broad cross reactivity | the only mAb that was cross reactive | majority of P. aeruginosa strains tested were recognised | recognised a unique epitope compared to 3C4
3C4: mouse IgG2b monoclonal antibody to the A-PS terminus; VH SEQ ID NO: 22, VL SEQ ID NO: 26 (antibody, V domains shown) VH: EVKLVESGGGLVQPGGSLRLSCATSGFTFTDYYMSWVRQPPGKALEWLGFIRNKANGYTTEYSASVKGRFTISRDNSQSILYLQMNTLRAEDSATYYCTRAIYYGYDGFAYWGQGTLVTVSA VL: DAVMTQTPLSLPVSLGDQASISCRSSQSLENSNGNTYLNWYLQKPGQSPQLLIYRVSNRFSGVLDRFSGSGSGTDFTLKISRVEAEDLGVYFCLQVTHVPFTFGSGTKLEIK |  |  |  | recognition restricted to the wt serotype 5 strains PAO1 BAA-47 and 5937 | recognised similar overlapping epitopes
